We go through one molecule from PMC12221289, “Armless hairpin-like tRNAs in Romanomermis culicivorax: Evolutionary adaptation of a mitochondrial elongation factor EF-Tu”.

Some targets named below: Bta mt-EF-Tu D384K (Bos taurus, UniProt P49410 44-452, D384K); Bta mt-EF-Tu (Bos taurus, UniProt P49410 44-452); Bta mt-EF-Tu D384A (Bos taurus, UniProt P49410 44-452, D384A).
Holding throughout (assay): DRaCALA; GTP; DRaCALA of EF-Tu:GTP:Phe-tRNA ternary complexes, 2 ul spotted on nitrocellulose, n>=3; binding buffer, pH and temperature not in the material

For orientation: Kd means the constant that tells how readily two partners part at equilibrium.

B1: Phe-tRNAPhe (canonical) (structured_RNA)
RNA: GCGGAUUUAGCUCAGUUGGGAGAGCGCCAGACUGAAGAUCUGGAGGUCCUGUGUUCGAUCCACAGAAUUCGCACCA
modifications: 3'-aminoacylated with Phe (flexizyme)
As to B1, the figures for the Kd with Bta mt-EF-Tu D384K, in the data set with Bta mt-EF-Tu and with Bta mt-EF-Tu D384A were 76.6 nM, 5.8 nM and 11.5 nM, respectively.
